Data: IntAct's records for PubMed 22904282

B1: DNA-directed RNA polymerase subunit beta (Mycobacterium tuberculosis (strain ATCC 25618 / P9WGY9 (parent)
chain: MLEGCILADSRQSKTAASPSPSRPQSSSNNSVPGAPNRVSFAKLREPLEVPGLLDVQTDSFEWLIGSPRWRESAAERGDVNPVGGLEEVLYELSPIEDFSGSMSLSFSDPRFDDVKAPVDECKDKDMTYAAPLFVTAEFINNNTGEIKSQTVFMGDFPMMTEKGTFIINGTERVVVSQLVRSPGVYFDETIDKSTDKTLHSVKVIPSRGAWLEFDVDKRDTVGVRIDRKRRQPVTVLLKALGWTSEQIVERFGFSEIMRSTLEKDNTVGTDEALLDIYRKLRPGEPPTKESAQTLLENLFFKEKRYDLARVGRYKVNKKLGLHVGEPITSSTLTEEDVVATIEYLVRLHEGQTTMTVPGGVEVPVETDDIDHFGNRRLRTVGELIQNQIRVGMSRMERVVRERMTTQDVEAITPQTLINIRPVVAAIKEFFGTSQLSQFMDQNNPLSGLTHKRRLSALGPGGLSRERAGLEVRDVHPSHYGRMCPIETPEGPNIGLIGSLSVYARVNPFGFIETPYRKVVDGVVSDEIVYLTADEEDRHVVAQANSPIDADGRFVEPRVLVRRKAGEVEYVPSSEVDYMDVSPRQMVSVATAMIPFLEHDDANRALMGANMQRQAVPLVRSEAPLVGTGMELRAAIDAGDVVVAEESGVIEEVSADYITVMHDNGTRRTYRMRKFARSNHGTCANQCPIVDAGDRVEAGQVIADGPCTDDGEMALGKNLLVAIMPWEGHNYEDAIILSNRLVEEDVLTSIHIEEHEIDARDTKLGAEEITRDIPNISDEVLADLDERGIVRIGAEVRDGDILVGKVTPKGETELTPEERLLRAIFGEKAREVRDTSLKVPHGESGKVIGIRVFSREDEDELPAGVNELVRVYVAQKRKISDGDKLAGRHGNKGVIGKILPVEDMPFLADGTPVDIILNTHGVPRRMNIGQILETHLGWCAHSGWKVDAAKGVPDWAARLPDELLEAQPNAIVSTPVFDGAQEAELQGLLSCTLPNRDGDVLVDADGKAMLFDGRSGEPFPYPVTVGYMYIMKLHHLVDDKIHARSTGPYSMITQQPLGGKAQFGGQRFGEMECWAMQAYGAAYTLQELLTIKSDDTVGRVKVYEAIVKGENIPEPGIPESFKVLLKELQSLCLNVEVLSSDGAAIELREGEDEDLERAAANLGINLSRNESASVEDLA
B2: DNA-directed RNA polymerase subunit beta (Mycobacterium tuberculosis (strain ATCC 25618 / P9WGY9 (parent)
chain: B1 chain
partner: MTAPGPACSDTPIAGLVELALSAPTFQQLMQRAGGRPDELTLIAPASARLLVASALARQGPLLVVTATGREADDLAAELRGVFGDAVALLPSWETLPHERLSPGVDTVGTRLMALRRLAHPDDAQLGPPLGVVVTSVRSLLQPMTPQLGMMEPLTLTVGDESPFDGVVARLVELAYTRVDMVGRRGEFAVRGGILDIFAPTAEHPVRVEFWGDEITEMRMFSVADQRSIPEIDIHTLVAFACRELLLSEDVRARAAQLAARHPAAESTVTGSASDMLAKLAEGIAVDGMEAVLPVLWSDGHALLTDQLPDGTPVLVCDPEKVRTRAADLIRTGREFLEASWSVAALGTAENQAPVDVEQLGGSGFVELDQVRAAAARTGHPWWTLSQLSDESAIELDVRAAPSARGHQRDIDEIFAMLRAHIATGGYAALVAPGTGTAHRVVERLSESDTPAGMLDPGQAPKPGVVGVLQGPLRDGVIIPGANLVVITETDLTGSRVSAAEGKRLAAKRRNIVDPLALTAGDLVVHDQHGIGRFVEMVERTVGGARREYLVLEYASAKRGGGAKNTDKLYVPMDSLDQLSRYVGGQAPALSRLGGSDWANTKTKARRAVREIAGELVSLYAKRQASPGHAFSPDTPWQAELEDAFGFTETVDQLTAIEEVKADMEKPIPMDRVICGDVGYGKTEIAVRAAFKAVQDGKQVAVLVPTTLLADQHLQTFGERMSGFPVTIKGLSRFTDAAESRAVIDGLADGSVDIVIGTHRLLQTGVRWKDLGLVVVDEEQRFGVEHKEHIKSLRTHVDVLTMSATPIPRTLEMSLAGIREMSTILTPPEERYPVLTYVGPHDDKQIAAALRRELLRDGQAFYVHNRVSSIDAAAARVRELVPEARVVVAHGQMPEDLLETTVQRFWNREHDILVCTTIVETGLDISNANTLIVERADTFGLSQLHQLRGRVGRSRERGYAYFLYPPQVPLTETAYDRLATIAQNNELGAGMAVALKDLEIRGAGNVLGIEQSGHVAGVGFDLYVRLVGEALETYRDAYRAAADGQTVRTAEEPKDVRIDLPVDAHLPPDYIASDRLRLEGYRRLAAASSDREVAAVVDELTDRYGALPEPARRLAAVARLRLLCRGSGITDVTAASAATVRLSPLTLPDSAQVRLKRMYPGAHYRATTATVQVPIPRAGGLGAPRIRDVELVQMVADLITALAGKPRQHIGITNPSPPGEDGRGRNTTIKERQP
B3: RNA polymerase-binding transcription factor CarD (Mycobacterium tuberculosis (strain ATCC 25618 / P9WJG3 (parent)
chain: MIFKVGDTVVYPHHGAALVEAIETRTIKGEQKEYLVLKVAQGDLTVRVPAENAEYVGVRDVVGQEGLDKVFQVLRAPHTEEPTNWSRRYKANLEKLASGDVNKVAEVVRDLWRRDQERGLSAGEKRMLAKARQILVGELALAESTDDAKAETILDEVLAAAS

Variants of: B1
Conditions: with card_myctu carD

Row | Variant | effect of a mutation on the interaction
1 | E138R | disrupting interaction
2 | S149A | decreasing interaction
3 | I147A | disrupting interaction

Variants of: B2
Conditions: with mfd_myctu mfd

Row | Variant | effect of a mutation on the interaction
4 | S149A | decreasing interaction strength
5 | I147A | disrupting interaction
6 | E138R | disrupting interaction

Variants of: B3
Conditions: with rpob_myctu rpoB

Row | Variant | effect of a mutation on the interaction
7 | MIFKVGDTVVYPHHGAALVEAIETETIKGEQKEYLVLKVAQGDLTVRVPAENAEYVGVRDVVGQEGLDKVFQVLRAPHTEEPTNWSRRYKANLEKLASGDVNKVAEVVRDLWRRDQERGLSAGEKRMLAKARQILVGELALAESTDDAKAETILDEVLAAAS | decreasing interaction strength
8 | MIFKVGDTVVYPHHGAALVEAIETRTIKGEQKEYLVLKVAQGDLTVEVPAENAEYVGVRDVVGQEGLDKVFQVLRAPHTEEPTNWSRRYKANLEKLASGDVNKVAEVVRDLWRRDQERGLSAGEKRMLAKARQILVGELALAESTDDAKAETILDEVLAAAS | decreasing interaction strength
